For series [1] the following is noted: cited from earlier work.
A further series concerns the target T1, GIPR (Homo sapiens, UniProt P48546).
T1 sequence (P48546 22-466): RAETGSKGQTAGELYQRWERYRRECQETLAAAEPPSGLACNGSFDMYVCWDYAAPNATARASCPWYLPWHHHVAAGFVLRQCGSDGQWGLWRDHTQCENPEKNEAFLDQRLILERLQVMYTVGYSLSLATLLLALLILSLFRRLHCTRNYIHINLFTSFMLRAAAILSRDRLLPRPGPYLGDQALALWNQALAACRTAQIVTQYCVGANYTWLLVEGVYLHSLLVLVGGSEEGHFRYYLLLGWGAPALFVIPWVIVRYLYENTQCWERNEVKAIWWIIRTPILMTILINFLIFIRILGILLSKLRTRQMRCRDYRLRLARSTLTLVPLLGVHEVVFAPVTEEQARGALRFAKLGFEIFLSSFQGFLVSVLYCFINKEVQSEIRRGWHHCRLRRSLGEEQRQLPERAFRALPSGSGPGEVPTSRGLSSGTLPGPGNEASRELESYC
Particulars: cited from earlier work.

Series [2] in a line: Immunogenicity test, antibody titre by direct ELISA, Example 6. The format is in vivo, mouse (Balb/c). The note with it: 30 nmol/kg daily for 28 days, serum on day 45. Background: An ELISA detects its analyte on a solid surface through an enzyme-linked reagent.
For series [3] the following is noted: human, in vivo; cited from earlier work.

The values below come from patent CN109836488A, “一种治疗代谢疾病的胰高血糖素类似物” (Zhejiang Doer Biologics Co Ltd, priority 2017, dated 2019).

With GLP-1 [天然GLP-1], in series [1], the Half-life in vivo is listed as ~2 分钟.

As to Glucagon [C001], the GIPR agonist activity entry with GIPR is “没有GIPR激动活性”. Further, in series [2], the Immunogenicity in vivo entry is listed as “极低”.

In the case of Taspoglutide, the Antibody formation rate in series [3] is 49 %.
